Laboratory results published in the supplement of paper PMC9732359.
± gives the uncertainty stated by the source.

Assay: protein stability index of a GFP-peptide fusion (yeast GPS) (PSI 1-4); higher = more stable; sorted into four equal gates, so the index is relative within each strain
Method in brief: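 The protein stability index of a peptide was calculated by multiplying its read frequency in each gate by that gate's number and adding the products. The peptides were tiled 17-residue stretches of yeast proteins, fused downstream of GFP on a Cherry-expressing plasmid and carried in yeast as a pooled library. Mid-log cultures in leucine-free medium were sorted into four equal gates by GFP/Cherry ratio, and each gate's plasmids were PCR-amplified and Illumina-sequenced.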

Sequence | protein stability index (doa10∆) | protein stability index (pdr5∆) | protein stability index (san1∆) | protein stability index (ubr1∆)
LENSSRSPRVVTNALDN [NUT1] | 2.85 ± 0.06 | 2.51 ± 0.058 | 2.279 ± 0.016 | 2.74 ± 0.057
GGHSLEEISFSLSEGCD [PRP28] | 2.17 ± 0.11 | 2.42 ± 0.067 | 1.93 ± 0.13 | 2.25 ± 0.094
HEYIRHLALEIGEVYND [RPN1] | 2.29 ± 0.065 | 2.09 ± 0.067 | 2.49 ± 0.11 | 1.54 ± 0.077
VPRTADRSASRAVFLFR [RPC82] | – | 3.53 ± 0.2 | – | 3.04 ± 0.17
KLKNNASRSQLEKGEIE [YJL039C/NUP192] | 3.18 ± 0.11 | 2.98 ± 0.1 | 2.66 ± 0.083 | 3.08 ± 0.087
FLKYYGAHKFLDTYLPE [SIR2] | 1.66 ± 0.06 | 1.77 ± 0.061 | 1.37 ± 0.1 | 1.67 ± 0.052
SKQQAKGAFQKVAATSR [RPL24A] | 2.52 ± 0.043 | 2.99 ± 0.045 | 2.84 ± 0.036 | 2.8 ± 0.038
PTLVRSVISGNLSLYEA [CSN12] | 2.92 ± 0.085 | 3.05 ± 0.092 | 3.06 ± 0.068 | 2.91 ± 0.054
VGLSQPDAKIQVRRDIP [YMR129W/POM152] | 2.98 ± 0.082 | 2.76 ± 0.14 | 2.51 ± 0.059 | 2.97 ± 0.066
EEIFFKSVRILKNKAEY [RPC40] | 3.2 ± 0.074 | 3.2 ± 0.085 | 3.06 ± 0.062 | 3.16 ± 0.047
SKFYNMKQPYVFVKKHH [SSN2] | 1.58 ± 0.11 | 1.5 ± 0.11 | 1.24 ± 0.14 | 1.28 ± 0.044
NTFVTRLNNVFVIGEQG [RPS4A] | 3.29 ± 0.096 | 2.89 ± 0.09 | 3.22 ± 0.13 | 3.16 ± 0.094
LILTSHNMKAYYKKFLI [BRR2] | – | – | – | 2.54 ± 0.14
TPDDDEIDVENHDRINI [RPN8] | 3.37 ± 0.26 | 3.5 ± 0.25 | 2.75 ± 0.17 | 2.68 ± 0.16
VMLKGIVTALLESDVNI [SRP54] | 1.3 ± 0.054 | 1.22 ± 0.067 | 1.18 ± 0.14 | 1.16 ± 0.066
LAFDKLNVPVFQIVIEP [ARP7] | 2.12 ± 0.058 | 2.23 ± 0.061 | 1.8 ± 0.079 | 1.7 ± 0.056
DLSLIVKARHGGCDYIF [CYT1] | 2.74 ± 0.097 | 2.94 ± 0.1 | 2.72 ± 0.1 | 2.46 ± 0.061
IYRDRSTFTKHLIKCFF [ITC1] | 2.11 ± 0.043 | 1.68 ± 0.038 | 2.21 ± 0.046 | 2.26 ± 0.031
QHPFPLAHSQHRCAIRS [SSN2] | 1.76 ± 0.05 | 1.42 ± 0.042 | 1.51 ± 0.091 | 1.27 ± 0.034
ATQVKTDNTVDKFDFYK [RPT3] | 3.29 ± 0.12 | 2.98 ± 0.11 | 3.26 ± 0.095 | 3.09 ± 0.099
LGLLLPIAASTDLPIET [RPN1] | 1.67 ± 0.049 | 2 ± 0.065 | 1.79 ± 0.076 | 2.17 ± 0.055
QDDDDYVDTATAKRKSR [IRR1] | 2.83 ± 0.061 | 2.94 ± 0.054 | 2.15 ± 0.083 | 2.93 ± 0.039
STLTLSDSEDSDAKEQH [ESC2] | – | – | – | 1.06 ± 0.13
INNPVNLTIHFGGEKGK [FAS1] | 2.97 ± 0.068 | 2.8 ± 0.097 | 2.8 ± 0.07 | 3.25 ± 0.069
AGQLALDLANSGDESNV [YDL116W/NUP84] | 2.93 ± 0.29 | – | 2.71 ± 0.26 | 3 ± 0.12
PKKHLSETADETLENNI [RPN11] | 3.15 ± 0.1 | 3.13 ± 0.098 | 3.17 ± 0.077 | 2.84 ± 0.088
GTCFGGSKLEDMSKILV [RET1] | 3.04 ± 0.074 | 3.3 ± 0.096 | 3.36 ± 0.065 | 3.45 ± 0.056

Sequence | protein stability index (doa10∆) | protein stability index (pdr5∆) | protein stability index (san1∆) | protein stability index (ubr1∆)
CAFLLTKIKDAEEDSLL [YJL039C/NUP192] | 3.22 ± 0.11 | 3.4 ± 0.071 | 3.08 ± 0.11 | 3.35 ± 0.1
MTPLLVNCLELLINTNF [PCI8] | 1.6 ± 0.037 | 1.6 ± 0.042 | 1.48 ± 0.078 | 1.42 ± 0.057
QLGLQTVIRGNSIISLE [SMX2] | 2.22 ± 0.093 | 2.57 ± 0.077 | 2.47 ± 0.07 | 2.25 ± 0.058
ICGYTRKEGPTIYYVDS [PRE2] | 3.36 ± 0.095 | 3.24 ± 0.081 | 3.42 ± 0.042 | 2.84 ± 0.069
LDLAGPLLAQLFKTLFK [RPB2] | 2.63 ± 0.038 | 1.25 ± 0.037 | 1.25 ± 0.078 | 1.18 ± 0.031
WRKDAQGNYPTTSYIKE [DPB4] | 2.94 ± 0.092 | 2.88 ± 0.069 | 2.92 ± 0.069 | 2.56 ± 0.064
INSPMPQQAQMQQAQFQ [SNF2] | 2.98 ± 0.093 | 2.98 ± 0.089 | 3.11 ± 0.1 | 2.98 ± 0.083
LSTSAFMEIVLEYNVAL [YML031W/NDC1] | 1.98 ± 0.037 | 1.71 ± 0.052 | 1.78 ± 0.08 | 2.12 ± 0.067
SRGFEVMYNGHTGKKLM [RPB2] | 1.97 ± 0.12 | 3.33 ± 0.25 | 2.71 ± 0.13 | –
DPLAKVNVLLQSYFSQL [BRR2] | 1.28 ± 0.049 | 1.78 ± 0.054 | 1.58 ± 0.092 | 1.54 ± 0.05
TETFEKPQRTNTLRMKH [RPB2] | 3.05 ± 0.16 | 3.21 ± 0.14 | 3.16 ± 0.1 | 3.05 ± 0.12
NTNNINNSSSGMNNASA [YGL172W/NUP49] | 3.33 ± 0.11 | 3.17 ± 0.079 | 3.25 ± 0.056 | 3.22 ± 0.094
LLKLTKVFIRESLSLKN [YML103C/NUP188] | 1.72 ± 0.1 | 1.89 ± 0.12 | 1.3 ± 0.22 | 1.83 ± 0.17
TANDRQINNVHLIPNEI [RPN4] | 2.88 ± 0.063 | 3.02 ± 0.062 | 2.92 ± 0.052 | 2.94 ± 0.055
KILAGLHDTQIEGKLHM [RPN10] | 3.31 ± 0.18 | 3.46 ± 0.18 | – | 2.98 ± 0.22
IASDGSYVNYRHMALLV [RPO21] | 1.68 ± 0.055 | 1.89 ± 0.051 | 1.35 ± 0.067 | 1.59 ± 0.038
ISFAAFILADAGLEITS [RPP1B] | 1.98 ± 0.063 | 1.8 ± 0.055 | 2.03 ± 0.23 | 1.9 ± 0.076
IVSKEYEKNFEATLESK [ESC2] | 2.98 ± 0.24 | 3.08 ± 0.17 | 2.9 ± 0.088 | 2.88 ± 0.18
GGGRVDKPLLKAGRAFH [RPL2A] | 3.12 ± 0.048 | 3.11 ± 0.043 | 2.95 ± 0.049 | 2.99 ± 0.03
EQELAHILLTELLAYQF [FAS2] | 2.547 ± 0.023 | 2.807 ± 0.025 | 2.67 ± 0.023 | 2.633 ± 0.019
LGRLVKAGKITTIEEIF [RPS2] | 2.03 ± 0.099 | 2.29 ± 0.12 | 2.16 ± 0.14 | 2.25 ± 0.12
SVSGSPRPSYSSRPNVN [YMR129W/POM152] | 2.8 ± 0.091 | 2.72 ± 0.085 | 2.45 ± 0.066 | 2.77 ± 0.081
KDQRATTPYMTKYERAR [RPO26] | 2.56 ± 0.057 | 3.01 ± 0.051 | 2.44 ± 0.11 | 3.04 ± 0.048
LHKIFYKVLKNNGLPEC [YCG1] | 1.68 ± 0.045 | 1.95 ± 0.043 | 2.45 ± 0.049 | 2.13 ± 0.04
NPIHVSRHFASYANLPG [FAS1] | 2.23 ± 0.059 | 2.36 ± 0.05 | 1.94 ± 0.081 | 2.11 ± 0.038
FEVLAPKWERVFLFDIE [RRI2] | 3.41 ± 0.12 | 2.72 ± 0.085 | 2.92 ± 0.1 | 2.52 ± 0.068
FDYSVILNSIPAAANLD [YJL039C/NUP192] | 1.48 ± 0.051 | 1.44 ± 0.083 | 1.71 ± 0.079 | 1.26 ± 0.047
